Measured values as given in the DeepSol protein solubility set.

Assay: soluble on expression in E. coli; label from the status in PepcDB or PDB records
For “MSEDSELIEQVIEQPDSLIISPPSDSSSSSYNHIQPFVYLESTATTQTNHNVLLILNQKITIDLISLWKKCEIIVCADGGANSLYEYFNDNNHHHHHENLQRSDYIPDYIVGDFDSISPDVKTYYESHGSKIIRQSSQYYNDFTKSIHCIQLHYQLNHTKENWFESIDEVDGLAKLWNGLNNSSDVVVDIDITIYVLNAIGGRFDQTVQSINQLYIMNEDYPKVTVFFITTNDIIFLLKKGVNYISYKNRLMFHKDNGSSPTPTCGLLPLSNKTPIILNSYGLKYDMRNWKTEMLGQVSSSNRISGETGFIVECSDDIVMNIEIDV”, the “soluble on expression in E. coli” value was “soluble”.
With “MGSDKIHHHHHHLANTKELGPLRILISRLLKKAGELCFTASDLTISKEQAKLITRGAPRFPYHTPHNMLFWLDESQYVDKCIIQHGKYESASTNLVQQFVKEGQTVLDIGGNIGYYTVMFSKIVGRSGKVITFEPTAHYRSILEKNVQENQINNVLIRPEGLSDKAEKLTISIGSSTATLHAPEGQQIDSYEAIQLARLDDLVEQLDITKLDFIKIDVDGHEPSVLRGAQQTIKKFKPLILLEVSHLHYLEGNVFAWDFYDYLSSLNYYIYDEHEMCRITRRSDFLIRCANFDRSCNILLSPTLLNEH” the “soluble on expression in E. coli” value was “not soluble”.
With “TIKNFTFFSPNSTEFPVGSNNDGKLYMMLTGMDYRTIRRKDWSSPLNTALNVQYTNTSIIAGGRYFELLNETVALKGDSVNYIHANIDLTQTANPVSLSAETANNSNGVDINNGSGVLKVCFDIVTTSGTGVTSTKPIVQTSTLDSISVNDMTVSGSIDVPVQTLTVEAGNGLQLQLTKKNNDLVIVRFFGSVSNIQKGWNMSGTWVDRPFRPAAVQSLVGHFAGRDTSFHIDINPNGSITWWGANIDKTPIATRGNGSYFIKSAW” the “soluble on expression in E. coli” value was “soluble”.
In the case of “MGSDKIHHHHHHMDFRQFEYVKTIAEEKSISRAAERLYISQPSLSQYIIRLENSLGVKLFDRTSATITLTFAGEKYIETARNIINLNNQLTKELNDIANLSKGRVIIGVPSQAGRYILPLVIPKFYKEYPNIEIIVEENIVSELEKMLLEGKIDIAILTLPVQHEKITYESIMNERIFLIAPKKHPICSVDGRISFNFIRNEKFILLKKGQRIRLIVDDIFSRIGAKPNIILEITNLDAAYRMASSGMGFTIVPENVLYLLNTNGKENDFIIDSLEHTLVVAYRKGEYLTRASREFIANLKGVMKMDYNNKNHNSVSYKKIYID”, the “soluble on expression in E. coli” value is reported as “not soluble”.
For “MTVETFHPKQTTTLETPAKTLEAASADSVNTGNVATGNRIGFVSLGCPKNLVDSERILTQLRIDGYEVTNSYDNADLVIVNTCGFIDAAVEESLDAVREALEENGKVIVTGCLGAKENQIREVHPDVLEITGPHSYEAVLKHVHKYVPKPEHNPFTSLIPQTGVKLTPKHYAYLKISEGCDNRCTFCIIPALRGDLDSRGAGSVLDEAKRLVEAGVQEILVVSQDTSAYGKDKGGRTDFWNGMPVKQDITSLARQLGKMGAWVRLHYIYPYPWVDDLIPLMAEGLILPYLDIPMQHASPRILKMMKRPGRVDRQLEAIQRWREICPDLVIRSTFIVGFPGETEEDFEMLLDFLREARLDRVGCFKYSEVEGAVANTIAELISEEVKEDRYHRFMEVQAEISAERLARFVGRTMDILIDDVDEEGAIGRSFADAPEIDGMVFINGETELEPGMLVRAVITHSDEHDLWAELVDADAEDEVEALEHHHHHH”, the “soluble on expression in E. coli” value was “soluble”.
For “MCHSGTFHLTAGESVEWVLTWAPSFEPHPPMPDYTRSLESTLSFWASWVEELPHQRLYDAEVRRSMLVLRALTDLQTGGIVAAPTTSLPEDFGGIRNWDYRYVWLRDSALTIEALVEYGFSQAALQWRTWLLRAIAGDPENLRIMYGLGGERHLPERELQHLRGYENSVPVRVGNGAAEQYQADVVGEVMVALETIRRAGCLEDEFSWGMQKAILDFQEANFDRKDQGIWEMRSEPQYFTHGRAMMWAGFDRGIKAIEEFNLDGPIERWRELRAKLREEIMTNGFNEEIQSFTQCYDNTQVDASLLQLAQIGFIGFDDPKMLSTVARIEQELLDAHGFLHRYHTDGSDGLAGDEYPFLICSFWLVEQYASSNRLDEAKEKMNRILAVQSPLGLLAEEYSTHHGRLAGNYPQAFSHIGLISAARAINFEEARNRLEHHHHHH”, the “soluble on expression in E. coli” value was “soluble”.
For “GSFEEDLSQKNTWWSRGIYELLGYTPFEVEPRAELFFQHIKEPHRTLIKEHYLHLNQSQETQYISEDYEILTKKGEGRWLNSSVKLIRDEKGTLLKAQGAILDVT”, the “soluble on expression in E. coli” value was “not soluble”.
For “MEALKRKIEEEGVVLSDQVLKVDSFLNHQIDPLLMQRIGDEFASRFAKDGITKIVTIESSGIAPAVMTGLKLGVPVVFARKHKSLTLTDNLLTASVYSFTKQTESQIAVSGTHLSDQDHVLIIDDFLANGQAAHGLVSIVKQAGASIAGIGIVIEKSFQPGRDELVKLGYRVESLARIQSLEEGKVSFVQEVHS”, the “soluble on expression in E. coli” value was “soluble”.
In the case of “MSLGASATRILFVDDEPSILKSLRRVTRSMSAECIFVDNGRDALALMRENPFDVVVSDMRMPEMDGATLLAEIARDYPETMRLVLSGFAEDDLILAAINEGRVWGFIHKPWDDHQLIVTLQHAVTTQQMMVERALLRRTVERYTSELKESFVSFVGGSLPMQAVYNQIERAAPSNASVFITGPSGTGKELAAEAIHKLSERKNGPFIALNCAAIPTELMESEIFGHVKGAFTGAVSARDGAATQAHNGTLFLDEIGEMDISLQAKLLRFIQTGSFQKVGGTKQENVNIRFVCATNRAPLDAIANGTLREDLYYRLNVVALHLPPLNQRENDPILLANTFLQRFAAQERKELVGFSSEASSLILGYDWPGNVRQLQNCIHNVVVMSAGPLITPNDIAIALQLDPQQVATEGHHHHHH”, the “soluble on expression in E. coli” value is reported as “not soluble”.
For “MGSDKIHHHHHHMQEIVDQLAATIRAAAASNVPLRIRSGGTKDFYGQQDKGRDVAPEGILDPTAFAGIVDYEPTELVVTARTGTPLAQLETELNGRGQMLAFEPPHFGAGATLGGCIAAGLSGPRRASAGAVRDFVLGVRMLDGRGDDLSFGGRVMKNVAGYDIPRLMAGSLGTLGLLLEVSLKVLPLPAEERTLRLSMNEAVAIETMNRWAGKPLPVSATCFCEGELTVRLSGATSAVRAARAVLGGEEIVENSSFWKSIREQVHPFFRSGKQLWRLSIKSTTAPLSLPGKQLIEWGGAVRWLSVDAEMDNDAVETLVRKTAKEAGGHATLFRSRTPAAAVFHPLPPAMMNIHRQLKEKFDPMRIFNRGRLYPEL”, the “soluble on expression in E. coli” value was “not soluble”.
For “MGYVEIIEQPKQRGMRFRYKCEGRSAGSIPGERSTDTTKTHPTIKINGYTGPGTVRISLVTKDPPHRPHPHELVGKDCRDGFYEAELCPDRCIHSFQNLGIQCVKKRDLEQAISQRIQTNNNPFQVPIEEQRGDYDLNAVRLCFQVTVRDPSGRPLRLPPVLSHPIFDNRAPNTAELKICRVNRNSGSCLGGDEIFLLCDKVQKEDIEVYFTGPGWEARGSFSQADVHRQVAIVFRTPPYADPSLQAPVRVSMQLRRPSDRELSEPMEFQYLPDGSLSSGSSLSSPSAGAAPRVLFGEWLLGEISSGCYEGLQWLDEARTCFRVPWKHFARKDLSEADARIFKAWAVARGRWPPSSRGGGPPPEAETAERAGWKTNFRCALRSTRRFVMLRDNSGDPADQHKVYALSGSLSSDSSLSSPSALSPKPRILPWLVSQLDLGQLEGVAWVNKSRTRFRIPWKHGLRQDAQQEDFGIFQAWAEATGAYVPGRDKPDLPTWKRNFRSALNRKEGLRLAEDRSKDPHDPHKIYEFVNGLEHHHHHH”, the “soluble on expression in E. coli” value was “soluble”.
For “MGSDKIHHHHHHAQQPVELPLWPDGAPNSNGLTGGEKEVSPHRLSNVTAPTITVYRAPQPNGMAVIMCPGGGYSRLAMDHEGHDMASWFCGQGITYVVLKYRMPNGHCEVPLSDAERAIRIVREHAGEWNIHPRKIGIMGASAGGHLASTLATHYSAASRPDFQILLYPVVTMTQSTHGGSRKELLGGNPTAEQEVLFSNELQVTSDTPQAFIVLSSDDGAVPPSNGVNYYLALQKNNVPASLHVYPTGGHGWGFRDNFKYKQQWTQELEKWLREGVVFPKETAPMLRIGKTYLGTKYVANTLDQGTEEKLVILPQTVDCLTFVEYTLAQAMGSSFADNLQKIRYRDGVIDGYTSRLHYTSDWIENGVRQGFLEDVTAQNSTQTTKLSLSYMSTHPQKYRQLADSPENVKRMAEHEKALSGKKVHWLPKGKLPDAGLPWIMDGDIIAITTNLPGLDVAHVGMAEYINGKLHLLHASSTLGKVVVSEEPLSQMLRNNKSWSGIRVVRMSHP”, the “soluble on expression in E. coli” value was “not soluble”.
